Biological target: hen egg white lysozyme (chicken) (UniProt P00698)
Experiment: SPR; lysozyme immobilised on a CM5 chip by amine coupling (200 RU); Affitins injected at 15.6-500 nM; 25 °C; HBSEP pH 7.4 (10 mM Hepes, 150 mM NaCl, 2 mM EDTA, 0.05% P20); association 2 min, dissociation 7 min; apparent

Chain of UniProt P00698 (P00698 19-147): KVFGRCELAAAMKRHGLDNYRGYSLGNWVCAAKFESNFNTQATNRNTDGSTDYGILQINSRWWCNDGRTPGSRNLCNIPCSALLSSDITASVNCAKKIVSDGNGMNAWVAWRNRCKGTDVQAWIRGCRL

Substance | Kd [nM]
Affitin H4 mutant M1 (F6W-F7I) (designed binder) | 3.98
Affitin H4 mutant M2 (L31I-F32W) (designed binder) | 440
Affitin H4 mutant M3 (L54I-L55V-L58I) (designed binder) | 7.5

Reference: paper PMC7661517
